Assay [1] addresses T1, biotinylated PD1-ECD-AviHis (human, UniProt Q15116 25-170, biotinylated).
T1 construct: also called huPD1; hu PD1; not shown: Avi-His tag
Description: ELISA on coated biotinylated PD1-ECD-AviHis (rel. EC50). On the procedure:
After washing (3×90 μl/well with PBST-buffer) 25 μl/well goat-anti-human H+L-POD (JIR, JIR109-036-098) was added in 1:5000 dilution and incubated at RT for 1 h on a shaker. After washing (3×90 μl/well with PBST-buffer) 25 μl/well of TMB substrate (Roche, 11835033001) was added and incubated until OD 2-3. Measurement took place at 370/492 nm.

Assay [2] deals with T2, LAG3 on cells (recombinant CHO cells expressing Lag3) (human, UniProt P18627 29-525).
T2 sequence: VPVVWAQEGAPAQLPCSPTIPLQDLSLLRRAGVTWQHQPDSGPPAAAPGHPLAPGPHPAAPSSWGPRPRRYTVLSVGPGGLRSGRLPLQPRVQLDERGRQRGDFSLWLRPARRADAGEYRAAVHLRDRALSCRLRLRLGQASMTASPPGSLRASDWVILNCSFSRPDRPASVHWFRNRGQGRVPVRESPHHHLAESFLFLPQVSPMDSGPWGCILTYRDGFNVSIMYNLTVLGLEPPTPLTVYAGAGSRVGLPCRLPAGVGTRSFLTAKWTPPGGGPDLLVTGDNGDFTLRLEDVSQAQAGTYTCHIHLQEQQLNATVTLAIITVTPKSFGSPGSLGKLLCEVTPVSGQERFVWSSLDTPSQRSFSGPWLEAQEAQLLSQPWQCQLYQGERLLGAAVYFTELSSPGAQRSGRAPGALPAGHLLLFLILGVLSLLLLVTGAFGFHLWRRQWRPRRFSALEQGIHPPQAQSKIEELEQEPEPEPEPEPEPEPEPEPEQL
Put plainly: cell-based or functional assay.

Assay [3] addresses T3, full-length human PD1 on cells (human, UniProt Q15116 25-288). Description: cell-based or functional assay.
The target of assay [4] is T3, full-length human PD1 on cells. Put plainly: cell ELISA on CHO-K1 cells expressing full-length human PD1 (rel. EC50). Summed up: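 Cells bound by test antibody were fixed with 0.05% glutaraldehyde for 10 min at RT, then detected with POD-conjugated anti-human H+L or anti-mouse secondary antibody for 1 h at RT. TMB development ran to OD 1.0-2.0, read at 370/492 nm.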

Assay [5] addresses T4, PD1 on PD1+LAG3+ human U2OS cells (UniProt Q15116 25-288). Put plainly: cellular PD1/LAG3 dimerization assay on PD1+LAG3+ U2OS cells, chemoluminescence; the signal needs PD1 and LAG3 bound at once. On the procedure:
For this specific interaction, the cytosolic C-terminal ends of both receptors were individually fused to heterologous subunits of a reporter enzyme.
On the next day cell medium was discarded and replaced by fresh medium. Antibody or ligand dilutions were prepared and titrated amounts of indicated (bispecific) antibodies were added and incubated at 37° C. for 2 hours. Next, a substrate/buffer mix (e.g. PathHunterFlash detection reagent) was added and again incubated for 1h. For measuring chemoluminescence induced upon simultaneous binding and dimerization a Tecan infinite reader was used.

Assay [6] concerns the target T5, LAG3 on PD1+LAG3+ human U2OS cells (Homo sapiens (Human), UniProt P18627 23-525).
T5 construct: also called cellular LAG3 (dimerization assay); not shown: subunit of the reporter enzyme fused to the cytosolic C-terminus
T5 sequence: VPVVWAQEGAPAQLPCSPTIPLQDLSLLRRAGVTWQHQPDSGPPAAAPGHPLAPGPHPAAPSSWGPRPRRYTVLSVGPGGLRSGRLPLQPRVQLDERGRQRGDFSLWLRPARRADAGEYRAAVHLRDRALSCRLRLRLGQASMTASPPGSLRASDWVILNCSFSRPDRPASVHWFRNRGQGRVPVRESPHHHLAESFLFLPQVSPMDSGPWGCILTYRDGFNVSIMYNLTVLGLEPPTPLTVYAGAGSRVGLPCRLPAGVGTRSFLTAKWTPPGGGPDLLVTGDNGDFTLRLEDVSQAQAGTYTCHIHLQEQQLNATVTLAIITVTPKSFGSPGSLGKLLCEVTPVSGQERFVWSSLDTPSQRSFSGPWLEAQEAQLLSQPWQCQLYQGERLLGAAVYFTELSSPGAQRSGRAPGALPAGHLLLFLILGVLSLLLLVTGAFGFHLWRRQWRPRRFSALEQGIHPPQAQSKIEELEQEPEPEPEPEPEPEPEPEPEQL
Description: cellular PD1/LAG3 dimerization assay, 7500 PD1+LAG3+ U2OS cells a well, 20 h at 37 °C, chemoluminescence; the signal needs PD1 and LAG3 bound at once. On the procedure: (§1) Next, assay plates were equilibrated to room temperature and a substrate/buffer mix (PathHunterFlash detection reagent, Discoverx) was added and again incubated for 4h. For measuring chemoluminescence induced upon simultaneous binding and dimerization a SpectraMax L plate reader (Molecular Devices) was used.

Assay [7] has as its target T4, PD1 on PD1+LAG3+ human U2OS cells. The description is as above. On the procedure:
as §1

T4 sequence (Q15116 25-288): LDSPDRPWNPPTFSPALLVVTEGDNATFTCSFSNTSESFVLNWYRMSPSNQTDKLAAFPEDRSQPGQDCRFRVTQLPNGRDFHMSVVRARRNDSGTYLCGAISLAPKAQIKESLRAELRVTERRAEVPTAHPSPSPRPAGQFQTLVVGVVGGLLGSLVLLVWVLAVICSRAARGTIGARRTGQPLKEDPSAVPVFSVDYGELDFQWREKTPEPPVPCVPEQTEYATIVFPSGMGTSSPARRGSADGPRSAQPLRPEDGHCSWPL
T3 sequence (Q15116 25-288 limits assumed): as the sequence (Q15116 25-288) above
T1 sequence (Q15116 25-170): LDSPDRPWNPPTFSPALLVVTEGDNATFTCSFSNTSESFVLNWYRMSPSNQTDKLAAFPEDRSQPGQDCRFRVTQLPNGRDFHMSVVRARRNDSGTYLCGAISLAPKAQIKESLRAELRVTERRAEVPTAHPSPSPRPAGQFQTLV

B1: PD1/LAG3 0927 (bispecific antibody, human IgG1, kappa, L234A L235A)
heavy 1: not shown
heavy 2: EVQLLESGGGLVQPGGSLRLSCAASGFIFDDYTMNWVRQAPGKGLEWVAVISWDGGGTYYTDSVKGRFTISRDDFKNTLYLQMNSLRAEDTAVYYCAKGLTDTTLYGSDYWGQGTLVTVSSASTKGPSVFPLAPSSKSTSGGTAALGCLVEDYFPEPVTVSWNSGALTSGVHTFPAVLQSSGLYSLSSVVTVPSSSLGTQTYICNVNHKPSNTKVDEKVEPKSCDKTHTCPPCPAPEAAGGPSVFLFPPKPKDTLMISRTPEVTCVVVDVSHEDPEVKFNWYVDGVEVHNAKTKPREEQYNSTYRVVSVLTVLHQDWLNGKEYKCKVSNKALGAPIEKTISKAKGQPREPQVCTLPPSRDELTKNQVSLSCAVKGFYPSDIAVEWESNGQPENNYKTTPPVLDSDGSFFLVSKLTVDKSRWQQGNVFSCSVMHEALHNHYTQKSLSLSPGK
light 1: EVQLLESGGGLVQPGGSLRLSCAASGFSFSSYTMSWVRQAPGKGLEWVATISGGGRDIYYPDSVKGRFTISRDNSKNTLYLQMNSLRAEDTAVYYCVLLTGRVYFALDSWGQGTLVTVSSASVAAPSVFIFPPSDEQLKSGTASVVCLLNNFYPREAKVQWKVDNALQSGNSQESVTEQDSKDSTYSLSSTLTLSKADYEKHKVYACEVTHQGLSSPVTKSFNRGEC
light 2: not shown
notes: 1+1 CrossMAb Vh-VL, knobs into holes, IgG1 PGLALA
As for B1, the EC50 was found to be 70 pM in assay [1] and 100 pM in assay [4]. Moreover, the “EC50 [nM], PD-1 & LAG-3 combo reporter assay (NFAT luciferase)” value in assay [2] and in assay [3] was 3.1 nM in each case. Besides, the 50% effective concentration (EC50 (read off the curve)) was ~0.02 µg/mL in assay [5], ~50 pM in assay [6] and ~50 pM in assay [7].

B2: PD1/LAG3 0799 (bispecific antibody, human IgG1, kappa, L234A L235A)
heavy 1: not shown
heavy 2: EVQLVESGGGLVQPGGSLRLACAASGFTFSDYAMSWVRQAPGKGLEWVSGIDNSGYYTYYTDSVKGRFTISRDDVKNTLYLQMNSLRAEDTAVYLCTKTHSGLIVNDAFDIWGQGTMVTVSSASTKGPSVFPLAPSSKSTSGGTAALGCLVEDYFPEPVTVSWNSGALTSGVHTFPAVLQSSGLYSLSSVVTVPSSSLGTQTYICNVNHKPSNTKVDEKVEPKSCDKTHTCPPCPAPEAAGGPSVFLFPPKPKDTLMISRTPEVTCVVVDVSHEDPEVKFNWYVDGVEVHNAKTKPREEQYNSTYRVVSVLTVLHQDWLNGKEYKCKVSNKALGAPIEKTISKAKGQPREPQVCTLPPSRDELTKNQVSLSCAVKGFYPSDIAVEWESNGQPENNYKTTPPVLDSDGSFFLVSKLTVDKSRWQQGNVFSCSVMHEALHNHYTQKSLSLSPGK
light 1: EVQLLESGGGLVQPGGSLRLSCAASGFSFSSYTMSWVRQAPGKGLEWVATISGGGRDIYYPDSVKGRFTISRDNSKNTLYLQMNSLRAEDTAVYYCVLLTGRVYFALDSWGQGTLVTVSSASVAAPSVFIFPPSDEQLKSGTASVVCLLNNFYPREAKVQWKVDNALQSGNSQESVTEQDSKDSTYSLSSTLTLSKADYEKHKVYACEVTHQGLSSPVTKSFNRGEC
light 2: not shown
notes: as for B1
In the case of B2, the EC50 in assay [1] was 60 pM; in assay [4] it was 70 pM. In addition, the “EC50 (read off the curve)” value in assay [5] is ~0.02 µg/mL.

For the origin of these results see patent US20220387586A1 (Hoffmann-La Roche, published 2022).
